“Also recorded” adds a separate entry of the source. Residues, ends and D or L forms follow the SMILES beside them.

This is an account of results in patent US11802878B2, “Protein sequencing method and reagents” (The Governing Council of the University of Toronto, priority 2009, dated 2023).

Assay [1] concerns the target T1, ClpS variant W1 (Escherichia coli, UniProt P0A8Q6, L99A/M40A/M62C/P98A/V43C/V65A).
T1 construct: ST2 secretion signal (N, cleaved yes); made in house; host or cells: M13 phage display, amplified in E. coli XL1Blue with helper phage M13K07
Briefly: Competitive phage ELISA, non-biotinylated peptide competitors against immobilized Wpep. The class given is binding, E. coli. Particulars: FIG. 13 legend; result in words. (In general: In an ELISA, binding on a coated surface is turned into a signal by an enzyme label.)
Description: Error bars represent 95% confidence intervals (n=2).
Each phage pool was then briefly incubated in wells of a microtitre plate with Wpep ([sequence](biotin)) immobilized on neutravidin. Non-binding phage were washed away, and retained phage were detected using an enzymatically-labeled antibody against the filamentous phage particle and an appropriate colorimetric substrate. The value for W1 binding to neutravidin alone was subtracted from the binding signal from every well to correct for non-specific binding. The ELISA values were then expressed as proportions, relative to the maximum ELISA signal in absence of competitor. Error bars represent 95% confidence intervals (n=2).

In assay [2] the test system is immobilized biotinylated peptide, N-terminal amino acid G (X-SDGMFTAGSLIGK(biotin)). In words: Phage ELISA, binding to immobilized peptide, N-terminal G. Particulars: N-terminal G; phage 1X; sub Fab. On the procedure: (§1) Given the discovery that the specificity pocket library was functionally robust, selections against synthetic peptide ligands were carried out using this library. The specificity pocket library was selected against 20 biotinylated peptides, each with a different N-terminal residue atop a common leader sequence (X-SDGMFTAGSLIGK(biotin)) (SEQ ID NO: 4). The peptides were immobilized individually to the bottom wells of a microtiter plate. […] Consequently, ClpS mutant variants that prefer other residues in addition to the ligand ‘bait’ would bind those competing peptides in solution and simply be washed away. Only selective variants that bound to the immobilized target(s) were amplified during each subsequent round of selection.
(§2) To evaluate the specificity and selectivity of individual clones, both wild-type ClpS and the selected variants' binding to each of the biotinylated peptides independently were tested. The same approach was also used to monitor the progress of the selections and to prioritize particular pools of phage for further investigation.
(§3) Promising single clones were picked from the selection pools and their specificity was evaluated using the same panel of biotinylated peptides and various amounts of phage supernatant. […] Accordingly, Variant 1 represents a selective N-terminal amino acid capture probe for tryptophan useful for the sequencing methods described herein. Variant 1 also represents a useful scaffold for performing further generation and selection of variants with desirable properties for use as additional N-terminal amino acid capture probes.
(§4) The selection and ELISA protocols are very similar. Briefly, each well of a 96-well Maxisorp plate was coated overnight at 4° C. with 100 μl of 10 μg/ml neutravidin in PBS, or 1:500 dilution of anti-FLAG antibody. […]
(§5) For the ELISA readouts, 100 μl of pH adjusted phage supernatant or polyethylene glycol (PEG) precipitated concentrated phage was added to appropriate wells and allowed to bind for 1 hour at 4° C. […] The reaction was stopped by addition of 90 μl of 1M H3PO4 and the absorbance at A450 nm was read.

In assay [3] the test system is immobilized biotinylated peptide, N-terminal amino acid F (X-SDGMFTAGSLIGK(biotin)). In words: Phage ELISA, binding to immobilized peptide, N-terminal F. To be noted: N-terminal F; phage 1X; sub Fab. The protocol:
as §1, §2, §3, §4, §5

Assay [4] concerns panel of 20 biotinylated peptides, each with a different N-terminal residue (X-SDGMFTAGSLIGK(biotin)). Briefly: Phage ELISA specificity profile over the panel of biotinylated peptides. Particulars: phage displayed; result in words; listed as ClpS Variant 1. The class given is binding. The protocol: as §1
To evaluate the specificity and selectivity of individual clones, both wild-type ClpS and the selected variants' binding to each of the biotinylated peptides independently were tested. […]
Promising single clones were picked from the selection pools and their specificity was evaluated using the same panel of biotinylated peptides and various amounts of phage supernatant. […]
as §5

In assay [5] the test system is immobilized biotinylated peptide, N-terminal amino acid M (X-SDGMFTAGSLIGK(biotin)). In words: Phage ELISA, binding to immobilized peptide, N-terminal M. To be noted: N-terminal M; phage 1X; sub Fab. The protocol: as §1, §2, §3, §4, §5
The test system of assay [6] is immobilized biotinylated peptide, N-terminal amino acid A (X-SDGMFTAGSLIGK(biotin)). In words: Phage ELISA, binding to immobilized peptide, N-terminal A. Particulars: N-terminal A; phage 1X; sub Fab. The protocol:
as §1, §2, §3, §4, §5

Assay [7] deals with immobilized biotinylated peptide, N-terminal amino acid E (X-SDGMFTAGSLIGK(biotin)). Briefly: Phage ELISA, binding to immobilized peptide, N-terminal E. To be noted: N-terminal E; phage 1X; sub Fab. On the procedure:
as §1, §2, §3, §4, §5

Assay [8] has as its system immobilized biotinylated peptide, N-terminal amino acid W (X-SDGMFTAGSLIGK(biotin)). In words: Phage ELISA, binding to immobilized peptide, N-terminal W. Particulars: N-terminal W; phage 1X; sub Fab. The protocol: as §1, §2, §3, §4, §5
Assay [9] relates to immobilized biotinylated peptide, N-terminal amino acid T (X-SDGMFTAGSLIGK(biotin)). Briefly: Phage ELISA, binding to immobilized peptide, N-terminal T. To be noted: N-terminal T; phage 1X; sub Fab. On the procedure: as §1, §2, §3, §4, §5
Assay [10] relates to immobilized biotinylated peptide, N-terminal amino acid I (X-SDGMFTAGSLIGK(biotin)). In words: Phage ELISA, binding to immobilized peptide, N-terminal I. Particulars: N-terminal I; phage 1X; sub Fab. On the procedure: as §1, §2, §3, §4, §5
The test system of assay [11] is immobilized biotinylated peptide, N-terminal amino acid Y (X-SDGMFTAGSLIGK(biotin)). In words: Phage ELISA, binding to immobilized peptide, N-terminal Y. To be noted: N-terminal Y; phage 1X; sub Fab. On the procedure: as §1, §2, §3, §4, §5
In assay [12] the test system is immobilized biotinylated peptide, N-terminal amino acid N (X-SDGMFTAGSLIGK(biotin)). In words: Phage ELISA, binding to immobilized peptide, N-terminal N. To be noted: N-terminal N; phage 1X; sub Fab. The protocol: as §1, §2, §3, §4, §5
Assay [13] concerns immobilized biotinylated peptide, N-terminal amino acid Q (X-SDGMFTAGSLIGK(biotin)). Briefly: Phage ELISA, binding to immobilized peptide, N-terminal Q. Particulars: N-terminal Q; phage 1X; sub Fab. On the procedure: as §1, §2, §3, §4, §5
Assay [14] deals with immobilized biotinylated peptide, N-terminal amino acid P (X-SDGMFTAGSLIGK(biotin)). In words: Phage ELISA, binding to immobilized peptide, N-terminal P. Particulars: N-terminal P; phage 1X; sub Fab. The protocol:
as §1, §2, §3, §4, §5

For assay [15], the system named is immobilized biotinylated peptide, N-terminal amino acid L (X-SDGMFTAGSLIGK(biotin)). In words: Phage ELISA, binding to immobilized peptide, N-terminal L. Particulars: N-terminal L; phage 1X; sub Fab. On the procedure: as §1, §2, §3, §4, §5
In assay [16] the test system is immobilized biotinylated peptide, N-terminal amino acid R (X-SDGMFTAGSLIGK(biotin)). Briefly: Phage ELISA, binding to immobilized peptide, N-terminal R. To be noted: N-terminal R; phage 1X; sub Fab. The protocol: as §1, §2, §3, §4, §5
Assay [17] relates to immobilized biotinylated peptide, N-terminal amino acid C (X-SDGMFTAGSLIGK(biotin)). In words: Phage ELISA, binding to immobilized peptide, N-terminal C. Particulars: N-terminal C; phage 1X; sub Fab. The protocol:
as §1, §2, §3, §4, §5

The subject of assay [18] is immobilized biotinylated peptide, N-terminal amino acid V (X-SDGMFTAGSLIGK(biotin)). Briefly: Phage ELISA, binding to immobilized peptide, N-terminal V. To be noted: N-terminal V; phage 1X; sub Fab. The protocol: as §1, §2, §3, §4, §5
In assay [19] the test system is immobilized biotinylated peptide, N-terminal amino acid D (X-SDGMFTAGSLIGK(biotin)). Briefly: Phage ELISA, binding to immobilized peptide, N-terminal D. Particulars: N-terminal D; phage 1X; sub Fab. On the procedure:
as §1, §2, §3, §4, §5

In assay [20] the test system is immobilized biotinylated peptide, N-terminal amino acid S (X-SDGMFTAGSLIGK(biotin)). Briefly: Phage ELISA, binding to immobilized peptide, N-terminal S. Particulars: N-terminal S; phage 1X; sub Fab. The protocol:
as §1, §2, §3, §4, §5

Assay [21] concerns immobilized biotinylated peptide, N-terminal amino acid K (X-SDGMFTAGSLIGK(biotin)). In words: Phage ELISA, binding to immobilized peptide, N-terminal K. To be noted: N-terminal K; phage 1X; sub Fab. The protocol: as §1, §2, §3, §4, §5
The test system of assay [22] is immobilized biotinylated peptide, N-terminal amino acid H (X-SDGMFTAGSLIGK(biotin)). In words: Phage ELISA, binding to immobilized peptide, N-terminal H. Particulars: N-terminal H; phage 1X; sub Fab. The protocol: as §1, §2, §3, §4, §5

Turning to `CC[C@H](C)[C@H](NC(=O)[C@H](CC(C)C)NC(=O)[C@H](CO)NC(=O)CNC(=O)[C@H](C)NC(=O)[C@@H](NC(=O)[C@H](Cc1ccccc1)NC(=O)[C@H](CCSC)NC(=O)CNC(=O)[C@H](CC(=O)O)NC(=O)[C@H](CO)NC(=O)[C@@H](N)Cc1c[nH]c2ccccc12)[C@@H](C)O)C(=O)O` [Wpep] (H-WSDGMFTAGSLI-OH; N-terminus and C-terminus assumed), the “effective competitor for binding ClpS Variant 1” value in assay [1] is recorded as “effective competitor”.

B1: Variant 1: engineered ClpS variant, SEQ ID NO: 2, binds N-terminal tryptophan selectively (protein)
chain: KPPSMYKVILVNDDYTPAEFCIDVLQKFFSYDVERATQLCLAAHYQGKAICGVFTAEVAETKVAMVNKYARENEHAALCTLEKA
For the molecule B1, the “phage ELISA binding signal” value in [2] is on record as 0.028; in assay [3], 0.083; in assay [5] it was −0.003; in [6] it was 0.018; in [7], 0.032; in assay [8], 2.636. Moreover, the “phage ELISA binding signal” value is given as −0.005 in assay [9]; −0.023 in assay [10]; 0.045 in assay [11]; 0.052 in assay [12]; 0.065 in assay [13]; 0.062 in assay [14]. The “phage ELISA binding signal” value in assay [15] is on record as 0.069; in assay [16], 0.04; in assay [17] it was 0.066; in [18], 0.032; in [19], −0.017; in [20], −0.001. Also, the “phage ELISA binding signal” value in assay [21] is listed as 0.129; in assay [22], −0.001. Further, in [4], the “binding specificity / preference for N-terminal amino acids” value was “selectively binds polypeptides with the N-terminal amino acid tryptophan; also recorded: bound specifically to tryptophan alone; also recorded: selectively binds tryptophan N-terminal amino acids”.
